Where “and” joins values, the source holds several entries; their conditions need not be identical. Equal entries are not always repeated. One block for each molecule: values may come before it.
Key:
human CD33 [1] = molecular target: T1, human CD33 (human, UniProt P20138 18-364); assay: flow cytometry, human primary monocytes, 10 ug/ml antibody
human CD33 [2] = molecular target: T1, human CD33; assay: flow cytometry, human primary macrophages, 10 ug/ml antibody
human CD33 [3] = molecular target: T1, human CD33; assay: flow cytometry, CHO cells expressing recombinant human CD33, 10 ug/ml antibody, PE secondary
human CD33 [4] = molecular target: T1, human CD33; assay: flow cytometry, human primary dendritic cells, 10 ug/ml antibody
human CD33 [5] = molecular target: T1, human CD33; assay: cell-based or functional assay
CD33-Fc (human) = CD33-Fc (human) (UniProt P20138); assay: red blood cell solid adhesion assay, plate-bound CD33-Fc, antibody at 1.0 ug/ml; competitor: ligands on red blood cells; % of RBC binding without antibody
Y50A = assay: alanine-scanning library in HEK-293T cells, immunofluorescence by flow cytometry; mean of duplicates, mock-subtracted, normalised to wild-type CD33; range in parentheses
Chain of Y50A (receptor chain, as listed by the source Y50A Y50A limits assumed): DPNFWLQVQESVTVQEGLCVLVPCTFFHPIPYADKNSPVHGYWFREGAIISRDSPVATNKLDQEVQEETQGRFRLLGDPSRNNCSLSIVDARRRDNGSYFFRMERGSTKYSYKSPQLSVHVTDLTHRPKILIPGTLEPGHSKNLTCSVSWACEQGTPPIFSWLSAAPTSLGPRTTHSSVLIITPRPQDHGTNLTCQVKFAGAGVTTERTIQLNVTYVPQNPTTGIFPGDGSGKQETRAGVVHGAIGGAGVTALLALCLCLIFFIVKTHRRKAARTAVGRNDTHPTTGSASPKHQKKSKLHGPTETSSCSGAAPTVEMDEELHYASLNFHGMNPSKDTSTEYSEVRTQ

N20A = assay: as above
Chain of N20A (receptor chain, as listed by the source N20A N20A limits assumed): as the sequence (receptor chain, as listed by the source Y50A Y50A limits assumed) above, with N3A, A33Y counted along it

F44A = assay: as above
Chain of F44A (receptor chain, as listed by the source F44A F44A limits assumed): as the sequence (receptor chain, as listed by the source Y50A Y50A limits assumed) above, with F27A, A33Y counted along it

N53A = assay: as above
Chain of N53A (receptor chain, as listed by the source N53A N53A limits assumed): as the sequence (receptor chain, as listed by the source Y50A Y50A limits assumed) above, with A33Y, N36A counted along it

K52A = assay: as above
Chain of K52A (receptor chain, as listed by the source K52A K52A limits assumed): as the sequence (receptor chain, as listed by the source Y50A Y50A limits assumed) above, with A33Y, K35A counted along it

D18A = assay: as above
Chain of D18A (receptor chain, as listed by the source D18A D18A limits assumed): as the sequence (receptor chain, as listed by the source Y50A Y50A limits assumed) above, with D1A, A33Y counted along it

F21A = assay: as above
Chain of F21A (receptor chain, as listed by the source F21A F21A limits assumed): as the sequence (receptor chain, as listed by the source Y50A Y50A limits assumed) above, with F4A, A33Y counted along it

P46A = assay: as above
Chain of P46A (receptor chain, as listed by the source P46A P46A limits assumed): as the sequence (receptor chain, as listed by the source Y50A Y50A limits assumed) above, with P29A, A33Y counted along it

P19A = assay: as above
Chain of P19A (receptor chain, as listed by the source P19A P19A limits assumed): as the sequence (receptor chain, as listed by the source Y50A Y50A limits assumed) above, with P2A, A33Y counted along it

Y49A = assay: as above
Chain of Y49A (receptor chain, as listed by the source Y49A Y49A limits assumed): as the sequence (receptor chain, as listed by the source Y50A Y50A limits assumed) above, with Y32A, A33Y counted along it

[6] = molecular target: histidine-tagged human CD33 (Sino Biological) (human, UniProt P20138 18-364); assay: SPR (BiaCore T200, 25 C), antibody captured on anti-mouse IgG chip, 20 nM His-tagged CD33 in solution, single-concentration 1:1 fit; apparent KD
Chain of histidine-tagged human CD33 (Sino Biological) (P20138 18-364): as the sequence (receptor chain, as listed by the source Y50A Y50A limits assumed) above, with A33Y counted along it

human CD33 [7] = molecular target: T1, human CD33; assay: flow cytometry binding curve on human primary dendritic cells, about 0.003-3 nM antibody
human CD33 [8] = molecular target: T1, human CD33; assay: flow cytometry binding curve on human primary dendritic cells, about 0.003-3 nM antibody (FIG. 5H)

T1 sequence (P20138 18-364 limits assumed): as the sequence (receptor chain, as listed by the source Y50A Y50A limits assumed) above, with A33Y counted along it

Molecule: WM53 MAb (antibody)
Binding Reactivity (% WT) (Y50A): 75.1 % WT
Binding Reactivity (% WT) (N20A): 166 % WT
Binding Reactivity (% WT) (F44A): 76.5 % WT
Binding Reactivity (% WT) (N53A): 164 % WT
Binding Reactivity (% WT) (K52A): 12.4 % WT
Binding Reactivity (% WT) (D18A): 98 % WT
Binding Reactivity (% WT) (F21A): 137 % WT
Binding Reactivity (% WT) (P46A): 152 % WT
Binding Reactivity (% WT) (P19A): 116 % WT
Binding Reactivity (% WT) (Y49A): 1.7 % WT

B1: anti-CD33 antibody 1A8 (antibody, V domains shown)
VH: QVQLQQSGAELVKPGASVKLSCKASGYTFTSYDINWVRQRPEQGLEWIGWIFPGDGSTKYNEKFKGKATLTTDKSSNTTYMQLSRLTSEDSAVYFCARGYHYAMDSWGQGTSVTVSS
VL: DIKMTQSPSSMYESLGERVTITCKASQDINKYLSWLQQKPGKSPKTLIYRANRLVDGVPSRFSGSGSGQDYSLTISSLEYEDMGIYHCLQYDEFPLTFGAGTKLELK
notes: Mouse hybridoma antibody; mIgG1 served as isotype control; also called 1A8.2
Kd [6]: 6000 pM
Percent RBC Binding to CD33 (CD33-Fc (human)): 10%

B2: anti-CD33 antibody gemtuzumab (antibody, V domains shown)
VH: EVQLVQSGAEVKKPGSSVKVSCKASGYTITDSNIHWVRQAPGQSLEWIGYIYPYNGGTDYNQKFKNRATLTVDNPTNTAYMELSSLRSEDTAFYYCVNGNPWLAYWGQGTLVTVSS
VL: DIQLTQSPSTLSASVGDRVTITCRASESLDNYGIRFLTWFQQKPGKAPKLLMYAASNQGSGVPSRFSGSGSGTEFTLTISSLQPDDFATYYCQQTKEVPWSFGQGTKVEVKR
notes: Commercially available antibody
EC50 for reducing cell surface expression of CD33 (12-point 2-fold titration, FACS) (human CD33 [5]): 108 pM
Kd [6]: 1100 pM
EC50 (human CD33 [7]): 612 pM

B3: anti-CD33 antibody 2F5 (antibody, V domains shown)
VH: EVQLQQSGPELVKPGASVKISCKASGYTFTDYNLHWVKLSHGKSLEWIGFIYPSNGITGYNQKFKNKATLTVDNSSSTAYMELRSLTSEDSAVYYCARSTVDYFDYWGQGTTLTVSS
VL: ZTQSLASLAVSLGQRATMSCRASQSVSTSTYSYMHWYQQKPGQPPKLLIKYASNLECGVPARFSGSGZGTDFTLNIHPVEEEDSATYYCQHSWEIPLTFGGGTKLEMK
notes: Mouse hybridoma antibody, tested under the label 2F5; also called C-2F5; 2F5 mAb
Binding Reactivity (% WT) (Y50A): 32.7 % WT
Binding Reactivity (% WT) (N20A): 111 % WT
Binding Reactivity (% WT) (F44A): 102 % WT
Binding Reactivity (% WT) (N53A): 78.2 % WT
Binding Reactivity (% WT) (K52A): 8.9 % WT
Binding Reactivity (% WT) (D18A): 79.5 % WT
Binding Reactivity (% WT) (F21A): 122 % WT
Binding Reactivity (% WT) (P46A): 105 % WT
Binding Reactivity (% WT) (P19A): 102 % WT
Binding Reactivity (% WT) (Y49A): 20.6 % WT
% Positive (human CD33 [1]): 97.5%
MFI (human CD33 [1]): 1200
% Positive (human CD33 [2]): 96.7%
MFI (human CD33 [2]): 2510
% Positive (human CD33 [3]): 87%
MFI (human CD33 [3]): 9520
EC50 (human CD33 [8]): < 200 pM
% Positive (human CD33 [4]): 99%
MFI (human CD33 [4]): 4300
% CD33 surface expression, U937 cells (FACS, 1.0 ug/ml antibody, 24 h, % of no antibody) (human CD33 [5]): 46.7%
% CD33 surface expression, human microglial cells (FACS, % of no antibody) (human CD33 [5]): 25%
% CD33 surface expression, human primary dendritic cells (FACS, 1.0 ug/ml antibody, 24 h, % of no antibody) (human CD33 [5]): 15.9%
% CD33 surface expression, human primary macrophages (FACS, 1.0 ug/ml antibody, 24 h, % of no antibody) (human CD33 [5]): 58.7%
% CD33 surface expression, human primary monocytes (FACS, 1.0 ug/ml antibody, 24 h, % of no antibody) (human CD33 [5]): 23.3%
EC50 for reducing cell surface expression of CD33 (12-point 2-fold titration, FACS) (human CD33 [5]): 21.5 pM
cell surface CD33 on hCD45+ hCD14+ blood cells of hu-NSGS mice (FACS, 40 mg/kg i.p.) (human CD33 [5]): 80%
cell surface CD33 on human primary monocytes at 0.001 ug/ml antibody (FACS, % of no antibody) (human CD33 [5]): 50% and 30%
cell surface CD33 on human primary monocytes at 0.01 ug/ml antibody (FACS, % of no antibody) (human CD33 [5]): 20%
cell surface CD33 on peripheral human CD45+ CD14+ monocytes of humanized NOG mice (FACS, single i.p. dose) (human CD33 [5]): 50%
fold improvement over gemtuzumab in reducing cell surface levels of CD33 on human primary monocytes (human CD33 [5]): 10 fold
fold improvement over lintuzumab in reducing cell surface levels of CD33 on human primary monocytes (human CD33 [5]): 100 fold
Kd [6]: 300 pM
Percent RBC Binding to CD33 (CD33-Fc (human)): 11.5%
EC50 (human CD33 [7]): 138 pM

Now from value to molecule:

% Positive (human CD33 [1]): 2.38%
MFI (human CD33 [1]): 109
% Positive (human CD33 [2]): 4.16%
MFI (human CD33 [2]): 1220
% Positive (human CD33 [3]): 0.47%
MFI (human CD33 [3]): 227
% Positive (human CD33 [4]): 1.97%
MFI (human CD33 [4]): 861
% CD33 surface expression, U937 cells (FACS, 1.0 ug/ml antibody, 24 h, % of no antibody) (human CD33 [5]): 95.7%
% CD33 surface expression, human microglial cells (FACS, % of no antibody) (human CD33 [5]): 92.1%
% CD33 surface expression, human primary dendritic cells (FACS, 1.0 ug/ml antibody, 24 h, % of no antibody) (human CD33 [5]): 70.5%
% CD33 surface expression, human primary macrophages (FACS, 1.0 ug/ml antibody, 24 h, % of no antibody) (human CD33 [5]): 95.4%
% CD33 surface expression, human primary monocytes (FACS, 1.0 ug/ml antibody, 24 h, % of no antibody) (human CD33 [5]): 104%
Percent RBC Binding to CD33 (CD33-Fc (human)): 83.8%
Molecule: isotype mIgG1 control antibody

EC50 (human CD33 [7]): 845 pM
B4: anti-CD33 antibody lintuzumab (antibody, V domains shown)
VH: QVQLVQSGAEVKKPGSSVKVSCKASGYTFTDYNMHWVRQAPGQGLEWIGYIYPYNGGTGYNQKFKSKATITADESTNTAYMELSSLRSEDTAVYYCARGRPAMDYWGQGTLVTVSS
VL: DIQMTQSPSSLSASVGDRVTITCRASESVDNYGISFMNWFQQKPGKAPKLLIYAASNQGSGVPSRFSGSGSGTDFTLTISSLQPDDFATYYCQQSKEVPWTFGQGTKVEIKR
notes: as for B2
